{"source": "paper PMC6308003", "about": "“Nitric Oxide Production from Nitrite Reduction and Hydroxylamine Oxidation by Copper-containing Dissimilatory Nitrite Reductase (NirK) from the Aerobic Ammonia-oxidizing Archaeon, Nitrososphaera viennensis” (Microbes and Environments, 2018)", "proteins": {"B1": {"name": "Ns. viennensis NirK (Nitrososphaera viennensis EN76) (protein)", "chain": "APTGVTRHYTLIANEMEVQVAPDNALHPGGIKYNAMVFNGTIPGPVMASNAGDTVEITLKNEGKQIHSIDFHAAIGPSQVLSGNIAAGESKTWTFNTPNSGAFMYHCGADALNGVWEHIANGMYGAFVVHPTNEAPAKEFYVAFGEIYNSADGGLFVGANGTGSFDIMKFATEQPDLILTNGMAHRYVPAIGQSVKLDLNANATVFQVKPGELTRWYILAPGPNEGVSFHFISGQIDVRDGSFKTRNMAPVRNEETWWIPVGSASVIESVFPEEGLYVGVDHNMAHVLRGGAFAVLATNNSTADDVPPEAWVPSKAWLNEHAEMGGSMMGGSAGNNATSGGNTTSG", "notes": "signal peptide Met1-Ala24 removed, 6xHis tag (pCold I), E. coli BL21(DE3), Cu-reconstituted"}}, "key": {"purified protein": {"substrate": "O=NO", "experiment": "purified protein", "format": "biochemical, Nitrososphaera viennensis", "details": "anoxic, 0.5 mM benzyl viologen, 0.24 mM dithionite, 20 mM phosphate pH 6.5, 25°C, labelled compound"}, "[1]": {"substrate": "NO", "experiment": "colorimetric NH2OH consumption", "format": "biochemical, Nitrososphaera viennensis", "details": "aerobic, dissolved O2 as oxidant, pH 7.5, 30°C", "source_text": "colorimetric NH2OH consumption on Ns. viennensis NirK"}}}
{"protein": "B1", "values": [{"measurement": "Km", "setting": "purified protein", "value": 287, "unit": "µM"}, {"measurement": "kcat", "setting": "purified protein", "value": 3.1, "unit": "s⁻¹"}, {"measurement": "Km", "setting": "[1]", "value": 97, "unit": "µM"}, {"measurement": "kcat", "setting": "[1]", "value": 0.039, "unit": "s⁻¹"}]}
